Here are results for 5 molecules from US20200131274A1 (CRESCENDO BIOLOGICS, published 2020).

Assay [1] addresses T1, recombinant human PSMA (R&D, cat. no. 4234-ZN) (human, UniProt Q04609 44-750).
T1 construct: Bought protein; also called rhPSMA; Recombinant PMSA
The assay can be described thus: Octet RED384 BLI, PSMA amine-coupled to sensor, 1:1 model.

The target in assay [2] is T2, human prostate specific membrane antigen (PSMA), full-length, on cells (human, UniProt Q04609 1-750).
T2 construct: also called huPSMA; human PSMA
T2 sequence (Q04609 whole entry): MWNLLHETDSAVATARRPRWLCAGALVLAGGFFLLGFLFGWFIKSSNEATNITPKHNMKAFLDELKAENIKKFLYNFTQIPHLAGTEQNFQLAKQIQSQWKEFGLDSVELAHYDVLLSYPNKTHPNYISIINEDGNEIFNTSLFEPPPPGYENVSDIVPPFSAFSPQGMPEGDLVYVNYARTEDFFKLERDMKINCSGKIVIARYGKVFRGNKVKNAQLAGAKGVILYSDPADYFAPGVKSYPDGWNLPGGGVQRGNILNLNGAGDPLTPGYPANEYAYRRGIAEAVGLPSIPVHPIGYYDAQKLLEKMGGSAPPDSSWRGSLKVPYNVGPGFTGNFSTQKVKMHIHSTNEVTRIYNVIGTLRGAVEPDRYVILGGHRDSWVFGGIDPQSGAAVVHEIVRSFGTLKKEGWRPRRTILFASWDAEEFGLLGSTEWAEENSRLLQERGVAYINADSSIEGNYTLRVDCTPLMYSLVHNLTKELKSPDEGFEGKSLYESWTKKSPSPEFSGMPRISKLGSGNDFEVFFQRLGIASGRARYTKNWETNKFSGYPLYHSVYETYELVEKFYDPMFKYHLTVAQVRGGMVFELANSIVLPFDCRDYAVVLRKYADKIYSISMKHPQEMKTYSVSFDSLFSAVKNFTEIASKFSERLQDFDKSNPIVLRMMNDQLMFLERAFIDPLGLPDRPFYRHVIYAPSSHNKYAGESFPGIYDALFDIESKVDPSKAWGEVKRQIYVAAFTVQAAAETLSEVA
The assay can be described thus: FMAT Mirrorball direct cell binding, purified His-tagged VH titrated on CHO cells expressing human PSMA, FL2 median binding signal [panel huPSMA-CHO binding].

In assay [3] the target is T3, cynomolgus PSMA, full-length, on CHO cells (cynomolgus, UniProt A0A2K5VNZ0 1-750).
T3 construct: whole, on cells; also called cynoPSMA; cyno PSMA
The assay can be described thus: FMAT Mirrorball direct cell binding, purified His-tagged VH titrated on CHO cells expressing cynomolgus PSMA, FL2 median binding signal [panel cynoPSMA-CHO binding].

Assay [4] addresses T2, human prostate specific membrane …. The assay can be described thus: FMAT Mirrorball direct cell binding, purified His-tagged VH titrated on LNCap cells, FL2 median binding signal [panel LNCap cell binding].
For assay [5] the target is unchanged. In words: cell-based or functional assay.
Assay [6] has as its target T1, recombinant human PSMA (R&D, cat. no. …). The assay can be described thus: Octet RED384 BLI, PSMA on sensor, VH series from 0.375 ug/ml. (Biolayer interferometry detects binding as a change in optical thickness at a sensor tip.)
Assay [7] has as its target T3, cynomolgus PSMA, full-length, on CHO …. The assay can be described thus: cell-based or functional assay.
For assay [8], the target named is T2, human prostate specific membrane …. The assay can be described thus: cell-based or functional assay. This is another data set of the same source.
Assay [9] has the same target. In words: FMAT direct cell binding, CHO human PSMA cells.
The target of assay [10] is T3, cynomolgus PSMA, full-length, on CHO …. The assay can be described thus: cell-based or functional assay. This is another data set of the same source.
Assay [11] deals with T2, human prostate specific membrane …. In words: cell-based or functional assay. The source holds these as a separate data set.
For assay [12] the target is unchanged. In words: FMAT cell binding, huPSMA CHO 1A10 cells, after 7 days in human serum at 37 C.
For assay [13] the target is unchanged. The assay can be described thus: FMAT direct cell binding, LNCap cells.
For assay [14] the target is unchanged. The assay can be described thus: FMAT cell binding, huPSMA CHO 1A10 cells, after 4 days in human serum at 37 C.
Assay [15] shares this target. The assay can be described thus: FMAT cell binding, huPSMA CHO 1A10 cells, after 1 day in human serum at 37 C.
For assay [16] the target is unchanged. The assay can be described thus: FMAT direct cell binding, DU145 PSMA cells.
Assay [17] concerns the target T3, cynomolgus PSMA, full-length, on CHO …. The assay can be described thus: FMAT direct binding on CHO cells expressing cynomolgus PSMA, VH not heated (4 °C, day 0), FL2 median mean fluorescence.
For assay [18] the target is unchanged. The assay can be described thus: FMAT direct cell binding, CHO cyno PSMA cells.
The target of assay [19] is T1, recombinant human PSMA (R&D, cat. no. …). In words: HTRF binding assay: His-Myc tagged VH, 3 nM biotinylated PSMA, streptavidin cryptate and anti-Myc Alexa Fluor 647; VH kept 0-7 days at 37 °C in cynomolgus monkey serum; Delta F% binding signal. On the technique in general: TR-FRET usually uses a lanthanide donor and a delayed reading to cut background.
In assay [20] the target is T2, human prostate specific membrane …. The assay can be described thus: FMAT cell binding, huPSMA CHO 1A10 cells, after 0 days in human serum at 37 C.
Assay [21] has as its target T3, cynomolgus PSMA, full-length, on CHO …. The assay can be described thus: FMAT direct binding on CHO cells expressing cynomolgus PSMA, VH kept 8 days at 40 °C, FL2 median mean fluorescence.
The target of assay [22] is T2, human prostate specific membrane …. The assay can be described thus: FMAT cell binding, huPSMA CHO 1A10 cells, after 1 day in human serum at 37 C. The source holds these as a separate data set.
Assay [23] shares this target. In words: FMAT cell binding, huPSMA CHO 1A10 cells, after 4 days in human serum at 37 C. The source holds these as a separate data set.
For assay [24], the target named is T1, recombinant human PSMA (R&D, cat. no. …). In words: Octet RED384 BLI, PSMA on sensor, VH series from 0.375 ug/ml. The source holds these as a separate data set.
For assay [25] the target is unchanged. In words: Octet RED384 BLI, PSMA on sensor, Table 21 b.
For assay [26], the target named is T2, human prostate specific membrane …. In words: FMAT cell binding, huPSMA CHO 1A10 cells, after 7 days in human serum at 37 C. This is another data set of the same source.
Assay [27] has as its target T1, recombinant human PSMA (R&D, cat. no. …). The assay can be described thus: Octet RED384 BLI, PSMA on sensor, Table 21 c; Table 21 part c), not part b) (0.85 nM for clone 1.8).
Assay [28] concerns the target T2, human prostate specific membrane …. The assay can be described thus: FMAT cell binding, huPSMA CHO 1A10 cells, after 0 days in human serum at 37 C. This is another data set of the same source.
Assay [29] concerns the target T1, recombinant human PSMA (R&D, cat. no. …). In words: Octet RED384 BLI, PSMA on sensor, Table 21 c.
The target of assay [30] is T3, cynomolgus PSMA, full-length, on CHO …. The assay can be described thus: cell-based or functional assay. This is another data set of the same source.
For assay [31], the target named is T1, recombinant human PSMA (R&D, cat. no. …). In words: Octet RED384 BLI, PSMA on sensor, VH purified from periplasmic extracts.

Where “and” joins values, the source holds several entries; their conditions need not be identical. Equal entries are not always repeated.

T1 sequence (Q04609 44-750 limits assumed): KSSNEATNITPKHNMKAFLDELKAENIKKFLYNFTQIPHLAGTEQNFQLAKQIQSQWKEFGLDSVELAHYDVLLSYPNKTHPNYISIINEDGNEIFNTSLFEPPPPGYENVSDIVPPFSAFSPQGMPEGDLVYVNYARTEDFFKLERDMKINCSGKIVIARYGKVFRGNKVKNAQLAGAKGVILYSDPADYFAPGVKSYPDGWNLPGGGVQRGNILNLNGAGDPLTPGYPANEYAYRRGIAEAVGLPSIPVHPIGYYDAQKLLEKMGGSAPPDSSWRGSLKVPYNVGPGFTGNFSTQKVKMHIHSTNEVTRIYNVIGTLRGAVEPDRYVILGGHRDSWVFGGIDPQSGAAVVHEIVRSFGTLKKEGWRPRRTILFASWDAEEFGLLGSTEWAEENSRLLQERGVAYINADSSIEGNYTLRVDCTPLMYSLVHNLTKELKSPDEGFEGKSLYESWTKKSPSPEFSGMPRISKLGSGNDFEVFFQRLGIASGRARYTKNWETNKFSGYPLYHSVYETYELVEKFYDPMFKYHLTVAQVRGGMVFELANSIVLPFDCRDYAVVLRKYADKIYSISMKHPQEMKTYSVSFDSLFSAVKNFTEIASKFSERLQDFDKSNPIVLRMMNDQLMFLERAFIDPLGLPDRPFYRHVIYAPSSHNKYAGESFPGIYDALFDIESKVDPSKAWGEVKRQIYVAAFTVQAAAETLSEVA

B1: single VH domain antibody 3.1 (VHH)
VHH: EVQLVESGGGVVQPGRSLRLSCAASGFPLISYGMHWVRQAPGKGLEWVAFMTYDGSNRYYADSVKGRFTISRDNSKNTLYLQMNSLRDEDTALYYCARDRIVGGRVPDAFDIWGQGTMVTVSS
notes: Human single VH domain antibody (Humabody); C-terminal His tag, residues not tied; also called VH3.1
Take B1: the equilibrium dissociation constant (Kd) (as a rule, the constant that tells how readily two partners part at equilibrium) in assay [1] worked out at 3.78 nM. Moreover, the koff (in general, the rate constant with which the complex falls apart) in assay [1] was 0.000452 s⁻¹. The “EC50 (read off the curve)” value in [2], in [3] and in [4] was roughly 2 nM in each case.

B2: single VH domain antibody 2.1 (VHH)
VHH: EVQLVESGGGVVQPGRSLRLSCAASGFSFSGYGMHWVRQAPGKGLEWVAYISYDGSNKYYADSVKGRFTISRDNSKNTLYLQMNSLRAEDTAVYYCAKDPAWGLRLGESSSYDFDIWGQGTMVTVSS
notes: Human single VH domain antibody (Humabody); tested with a C-terminal His tag; 71-95; also called VH 2.1; VH2.1
Consider B2, for which the Kd in assay [1] is 1.64 nM; in [6], 0.32 nM. Further, the off-rate constant (koff) was found to be 0.000456 s⁻¹ in assay [1] and 0.000228 s⁻¹ in assay [6]. In addition, the “pHrodo Green internalization assay, human PSMA Average EC50 (M)” value (“pHrodo Green internalization assay” for short) in assay [5] was determined as 8e-10 M. In addition, the “IC50 (read off the curve): His-ZAP saporin cell killing, cyno-PSMA CHO, % Control (Cell Titer-Glo)” value in assay [7] was roughly 0.1 nM. Besides, the “IC50 (read off the curve): His-ZAP saporin cell killing, human-PSMA CHO, % Control (Cell Titer-Glo)” value in [8] is roughly 0.04 nM. In addition, the EC50 (as a rule, the midpoint of the concentration-response curve) in assay [9] came out at 0.11 nM; in assay [12] it was 0.301 nM; in assay [13], 0.0607 nM; in assay [14], 0.26 nM; in assay [15], 0.254 nM; in [16], 0.23 nM. Also, the EC50 in assay [18] was found to be 0.367 nM; in assay [20] it was 0.249 nM. Besides, the “His-ZAP cell killing, cyno PSMA EC50” value in [10] was found to be 0.052 nM. Moreover, in [11], the “His-ZAP cell killing, human PSMA Average EC50” value worked out at 0.014 nM. Also, the concentration for a half-maximal effect (EC50 (read off the curve)) (usually the concentration that produces a half-maximal response) in assay [3] is roughly 0.6 nM; in assay [17], roughly 2 nM; in assay [19], roughly 1 nM; in assay [21], roughly 2 nM.

B3: single VH domain antibody 2.22 (VHH)
VHH: EVQLVESGGGVVQPGRSLRLSCAASGFSFSGYGTHWVRQAPGKGLEWVAYISYDGSNKYYAAPVKGRFTISRDNSKNTLYLQMNSLRAEDTAVYYCAKDAAWGLRLGESSSYDFDIWGQGTMVTVSS
notes: Human single VH domain antibody (Humabody); C-terminal His tag, residues not tied
Regarding B3, in assay [5], the “pHrodo Green internalization assay” value is 6.7e-10 M. The dissociation constant Kd in assay [6] worked out at 2.62 nM. In addition, the koff in assay [6] was 0.00244 s⁻¹. Also, the concentration for a half-maximal effect (EC50) in assay [9] stood at 0.123 nM; in [12], 0.328 nM; in assay [13] it was 0.153 nM; in assay [14], 0.34 nM; in assay [15], 0.291 nM; in [16], 0.229 nM. Moreover, the results for the EC50 in assay [18] and in [20] were 0.613 nM and 0.305 nM, respectively. Besides, in assay [10], the “His-ZAP cell killing, cyno PSMA EC50” value came to 0.18 nM. The “His-ZAP cell killing, human PSMA Average EC50” value in assay [11] amounted to 0.069 nM.

B4: single VH domain antibody 1.8 (VHH)
VHH: EVQLLESGGGLVQPGGSLRLSCAASGFSFSSYAMSWVRQAPGKGLEWVSSIGENDGTTDYADSVKGRFTISRDNSKNTLYLQMNSLRVEDTAVYYCVKDGVHWGQGTLVTVSS
notes: Human single VH domain antibody (Humabody)
Regarding B4, the EC50 in [22] was 0.486 nM and 0.22 nM; in [23] it was 0.496 nM and 0.25 nM; in assay [9] it was 0.103 nM; in [13] it was 0.147 nM; in [26], 0.542 nM and 0.27 nM; in assay [16] it was 0.0945 nM. Besides, the EC50 in [28] is 0.409 nM and 0.17 nM; in assay [18], 0.31 nM. For the same molecule, the “pHrodo Green internalization assay” value in [5] was 5e-10 M and 1.2e-09 M. For the same molecule, the “His-ZAP cell killing, cyno PSMA EC50” value in [10] amounted to 1.4 nM. For the same molecule, the “His-ZAP cell killing, human PSMA Average EC50” value in [11] is 0.026 nM and 0.04 nM. The Kd was determined as 1.95 nM in assay [24], 0.85 nM in [25] and 1.95 nM in assay [27]. Moreover, the koff turned out to be 0.00104 s⁻¹ in assay [24], 0.00068 s⁻¹ in assay [25] and 0.00104 s⁻¹ in assay [29].

B5: single VH domain antibody 5.1 (VHH)
VHH: QVQLVESGGGVVQPGRSLRLSCAASGFTFNNYGMHWVRQAPGKGLEWVAIISYDGNTKYYTDSVKGRFTISRDNSKNTLYLQMNSLRVEDTAVYYCAKGLWPSDVWGQGTTVTVSS
notes: Human single VH domain antibody (Humabody); purified via the C-terminal His-tag, residues not tied
Take B5: in assay [30], the “EC50 (read off the curve): pHrodo Green internalisation signal FL2, CHO cells expressing cynomolgus PSMA” value was roughly 2e-09 M. Also, in assay [31], the Kd worked out at 30 nM and the koff is 0.0091 s⁻¹.
